Experimental data from publication PMC2138200.
Several values for one entry are separate records, joined by “and”; a condition that tells them apart may be missing. Equal entries are not always repeated.

Target: p53, Gal4 fusion of the two-hybrid control plasmid pM53
Test: two-hybrid

Question: Which CAT protein of the two-hybrid reporter does the source give for “SV-40 large T, VP16 fusion of the two-hybrid control plasmid pV-T (natural protein)” here?
Answer: The CAT protein of the two-hybrid reporter was 186 pg and 251 pg.
